Numbering of substitutions follows the chain as printed.
B1: 82H02 TCE #1 (sequence optimized 82H02 bispecific TCE in Format 1A, high ROR1 / high CD3 affinity) (bispecific antibody)
heavy 1: EVQLVESGGGLVQPGGSLKLSCAASGFTFNTYAMNWVRQASGKGLEWVGRIRSKYNNYATYYADSVKGRFTISRDDSKNTLYLQMNSLKTEDTAVYYCVRHGNFGASYVSWFAYWGQGTMVTVSSASTKGPSVFPLAPSSKSTSGGTAALGCLVKDYFPEPVTVSWNSGALTSGVHTFPAVLQSSGLYSLSSVVTVPSSSLGTQTYICNVNHKPSNTKVDKKVEPKSCDKTHTCPPCPAPEAAGGPSVFLFPPKPKDTLMISRTPEVTCVVVDVSHEDPEVKFNWYVDGVEVHNAKTKPREEQYNSTYRVVSVLTVLHQDWLNGKEYKCKVSNKALGAPIEKTISKAKGQPFRPEVHLLPPSREEMTKNQVSLTCLARGFYPKDIAVEWESNGQPENNYKTTPSRQEPSQGTTTFAVTSKLTVDKSRWQQGNVFSCSVMHEALHNHYTQKTISLSPGK
heavy 2: EIVLTQSPATLSLSPGERATLSCRASQSVSSYLAWYQQKPGQAPRLLIYDASNRATGIPARFSGSGSGTDFTLTISSLEPEDFAVYYCQQRSNWPPSTFGQGTRLEIKGGGGSGGGGSGGGGSGGGGSEVQLLESGGGLVQPGGSLRLSCAASGFTFTSYAMSWVRQAPGKGLEWVSTISGSGGGTYYTDSVKGRFTISRDNSKNTLYLQMNSLRAEDTAVYYCAQGSSIFDYWGQGTLVTVSSEPKSSDKTHTCPPCPAPEAAGGPSVFLFPPKPKDTLMISRTPEVTCVVVDVSHEDPEVKFNWYVDGVEVHNAKTKPREEQYNSTYRVVSVLTVLHQDWLNGKEYKCKVSNKALGAPIEKTISKAKGQPREPQVYTLPPPSEELALNELVTLTCLVKGFYPSDIAVEWLQGSQELPREKYLTWAPVLDSDGSFFLYSILRVAAEDWKKGDTFSCSVMHEALHNHYTQKSLDRSPGKGGGGSGGGGSGGGGSGGGGSEIVLTQSPATLSLSPGERATLSCRASQSVSSYLAWYQQKPGQAPRLLIYDASNRATGIPARFSGSGSGTDFTLTISSLEPEDFAVYYCQQRSNWPPSTFGQGTRLEIKGGGGSGGGGSGGGGSGGGGSEVQLLESGGGLVQPGGSLRLSCAASGFTFTSYAMSWVRQAPGKGLEWVSTISGSGGGTYYTDSVKGRFTISRDNSKNTLYLQMNSLRAEDTAVYYCAQGSSIFDYWGQGTLVTVSS
light: QAVVTQEPSLTVSPGGTVTLTCRSSTGAVTTSNYANWVQQKPGQAPRGLIGGTNKRAPGTPARFSGSLLGGKAALTLSGVQPEDEAEYYCALWYSNLWVFGGGTKLTVLGQPKAAPSVTLFPPSSEELQANKATLVCLISDFYPGAVTVAWKADSSPVKAGVETTTPSKQSNNKYAASSYLSLTPEQWKSHRSYSCQVTHEGSTVEKTVAPTECS
notes: also called 82H02 #1; 82H02 VL1.07x1F3.5-VH1.03
B2: 82H02 TCE #2 (sequence optimized 82H02 bispecific TCE in Format 1A, high ROR1 / low CD3 affinity) (bispecific antibody)
heavy 1: B1 heavy 1 with A106N
heavy 2: B1 heavy 2
light: B1 light with A2T, R23A, G48A
notes: also called 82H02 #2; 82H02 VL1.07x1F3.5-VH1.01-VL1.01
B3: 82H02 TCE #4 (sequence optimized 82H02 bispecific TCE in Format 1A, low ROR1 / low CD3 affinity) (bispecific antibody)
heavy 1: B1 heavy 1 with A106N
heavy 2: B1 heavy 2 with S97F, S596F
light: B1 light with A2T, R23A, G48A
notes: also called 82H02 #4; 82H02 VL1.06x1F3.5-VH1.01-VL1.01

biological target: T1, human ROR1 (on cells) (human, UniProt Q01973 30-937); assay: cell-based or functional assay

Row | Binder | TDCC EC50, PBMCs: MDA-MB-231 [pM]
1 | B1 | 24600
2 | B2 | 43900
3 | B3 | 168000

biological target: T2, mouse ROR1 (on 4T1 cells engineered to overexpress it) (mouse, UniProt Q9Z139 30-937); assay: flow cytometry, 4T1 cells overexpressing mouse ROR1
T2 construct: whole, on cells; also called muROR1; mROR1
Method: (§1) After 15-minutes of incubation at room temperature, the cells were washed twice with 200 μL of PBS by centrifugation at 500×g for 5 minutes at room temperature and resuspended in […] of 10% goat serum in BD staining buffer (BD Biosciences, Cat No: 554657). […] The plates were then covered with foil to avoid direct light and incubated for 60 minutes at 4° C. […] After incubating for 30 minutes at 4° C., the cells were washed twice with 200 μL of PBS by centrifugation at 500×g for 5 minutes at room temperature and resuspended into 100 μL of fixation buffer (BioLegend, Cat No: 420801). The samples were then analyzed on a flow cytometer for binding signal using FlowJo software. ROR and CD3 binding EC₅₀s (concentration vs mean fluorescence intensity (MFI)) for reference molecules and test bispecific TCEs were obtained using 4-parameter non-linear regression curve fitting in GraphPad Prism.

Row | Binder | EC50 [pM]
4 | B1 | 2190
5 | B2 | 2240
6 | B3 | 496000

biological target: T1, human ROR1 (on cells); assay: flow cytometry, ROR1+ MDA-MB-231 cells
Method: as §1

Row | Binder | EC50 [pM]
7 | B1 | 810
8 | B2 | 720
9 | B3 | 76500

biological target: T1, human ROR1 (on cells); assay: cell-based or functional assay; remark: another data set of the same source

Row | Binder | TDCC AUC, PBMCs: MDA-MB-231-0.2 | TDCC AUC, PBMCs: MDA-MB-231-0.4 | TDCC AUC, PBMCs: MDA-MB-231-0.6 | TDCC AUC, PBMCs: MDA-MB-231-1.3 | TDCC AUC, PBMCs: MDA-MB-231-7 | TDCC EC50, PBMCs: MDA-MB-231-0.2 [pM] | TDCC EC50, PBMCs: MDA-MB-231-0.4 [pM] | TDCC EC50, PBMCs: MDA-MB-231-0.6 [pM] | TDCC EC50, PBMCs: MDA-MB-231-1.3 [pM] | TDCC EC50, PBMCs: MDA-MB-231-7 [pM]
10 | B1 | 39000 | 50200 | 57100 | 64800 | 74200 | 11.9 | 10.3 | 10 | 7.03 | 4.33
11 | B2 | 35700 | 47600 | 54100 | 63700 | 72000 | 13.7 | 12.5 | 10.5 | 8.96 | 4.71
12 | B3 | 25900 | 41900 | 46300 | 58900 | 68300 | 22.3 | 19.6 | 15.2 | 11.2 | 6.53

same assay, conditions: not given

Row | Binder | TDCC Emax, PBMCs: MDA-MB-231-0.2 [%] | TDCC Emax, PBMCs: MDA-MB-231-0.4 [%] | TDCC Emax, PBMCs: MDA-MB-231-0.6 [%] | TDCC Emax, PBMCs: MDA-MB-231-1.3 [%] | TDCC Emax, PBMCs: MDA-MB-231-7 [%]
13 | B1 | 40.7 | 52.2 | 60.2 | 66.5 | 75.8
14 | B2 | 37.5 | 50.2 | 56.8 | 65.4 | 74.1
15 | B3 | 27.4 | 45 | 51.5 | 60.4 | 70.3

biological target: T1, human ROR1 (on cells); assay: cell-based or functional assay; remark: another data set of the same source

Row | Binder | IFNγ release AUC, PBMCs: MDA-MB-231-0.2 | IFNγ release AUC, PBMCs: MDA-MB-231-0.4 | IFNγ release AUC, PBMCs: MDA-MB-231-0.6 | IFNγ release AUC, PBMCs: MDA-MB-231-1.3 | IFNγ release AUC, PBMCs: MDA-MB-231-7 | IFNγ release EC50, PBMCs: MDA-MB-231-0.2 [pM] | IFNγ release EC50, PBMCs: MDA-MB-231-0.4 [pM] | IFNγ release EC50, PBMCs: MDA-MB-231-0.6 [pM] | IFNγ release EC50, PBMCs: MDA-MB-231-1.3 [pM] | IFNγ release EC50, PBMCs: MDA-MB-231-7 [pM]
16 | B1 | 2.09e+06 | 2.43e+06 | 3.15e+06 | 4.93e+06 | 5.16e+06 | 143 | 123 | 80.3 | 24.3 | 20.4
17 | B2 | 1.55e+06 | 2.03e+06 | 9.77e+06 | 4.49e+06 | 4.68e+06 | 192 | 151 | 97.7 | 30.6 | 26.5
18 | B3 | 1.09e+06 | 1.42e+06 | 8.23e+06 | 4.11e+06 | 4.14e+06 | 280 | 160 | 121 | 35.1 | 30.9

same assay, conditions: not given

Row | Binder | IFNγ release Emax, PBMCs: MDA-MB-231-0.2 [%] | IFNγ release Emax, PBMCs: MDA-MB-231-0.4 [%] | IFNγ release Emax, PBMCs: MDA-MB-231-0.6 [%] | IFNγ release Emax, PBMCs: MDA-MB-231-1.3 [%] | IFNγ release Emax, PBMCs: MDA-MB-231-7 [%]
19 | B1 | 2860 | 3050 | 3980 | 5260 | 5420
20 | B2 | 2270 | 2670 | 3670 | 4850 | 4970
21 | B3 | 1730 | 1840 | 2780 | 4560 | 4480

biological target: T2, mouse ROR1 (on 4T1 cells engineered to …); assay: flow cytometry; reference: human ROR1 on MDA-MB-231 cells

Row | Binder | fold difference in apparent ROR1 binding affinity between human and mouse ROR1 [fold]
22 | B1 | ~3
23 | B2 | ~3
24 | B3 | ~6.5

biological target: T1, human ROR1 (on cells); assay: cell-based or functional assay; remark: another data set of the same source

Row | Binder | IFNγ release EC50, PBMCs: MDA-MB-231 [pM] | Max IFNγ, PBMCs: MDA-MB-231 [pg/mL]
25 | B1 | 205000 | 1120
26 | B2 | 265000 | 1000
27 | B3 | 509000 | 764

biological target: T3, human CD3 (on Jurkat T cells or human CD8+ T cells) (human, UniProt P07766 23-207; P09693 23-182; P04234 22-171; P20963 22-164); assay: flow cytometry, human CD8+ T cells
T3 construct: Entries are printed with signal peptides; also called huCD3; CD3ε
T3 sequence (P07766 23-207 limits assumed, chain 1 of 4): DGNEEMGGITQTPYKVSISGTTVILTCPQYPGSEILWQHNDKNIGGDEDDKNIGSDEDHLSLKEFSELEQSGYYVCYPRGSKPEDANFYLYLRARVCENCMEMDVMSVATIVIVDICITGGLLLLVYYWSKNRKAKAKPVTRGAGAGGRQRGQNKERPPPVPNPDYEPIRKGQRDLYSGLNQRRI
T3 sequence (P09693 23-182 limits assumed, chain 2 of 4): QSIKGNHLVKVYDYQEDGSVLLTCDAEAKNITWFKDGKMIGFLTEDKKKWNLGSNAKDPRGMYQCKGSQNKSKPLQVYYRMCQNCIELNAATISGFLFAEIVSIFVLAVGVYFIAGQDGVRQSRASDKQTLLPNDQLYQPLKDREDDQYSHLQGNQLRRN
T3 sequence (P04234 22-171 limits assumed, chain 3 of 4): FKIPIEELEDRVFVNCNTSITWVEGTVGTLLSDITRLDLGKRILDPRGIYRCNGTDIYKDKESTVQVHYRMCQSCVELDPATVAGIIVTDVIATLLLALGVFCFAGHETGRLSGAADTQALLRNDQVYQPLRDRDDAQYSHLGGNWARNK
T3 sequence (P20963 22-164 limits assumed, chain 4 of 4): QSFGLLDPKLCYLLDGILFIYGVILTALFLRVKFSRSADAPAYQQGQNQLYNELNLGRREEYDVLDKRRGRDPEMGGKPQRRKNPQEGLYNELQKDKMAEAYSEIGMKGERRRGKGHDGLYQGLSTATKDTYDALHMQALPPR
Method: as §1

Row | Binder | EC50 [pM]
28 | B1 | 2800
29 | B2 | 19800
30 | B3 | 20400

biological target: T4, cynomolgus CD3 (on cynomolgus pan-T cells) (cynomolgus, UniProt Q95LI5 22-198); assay: flow cytometry, cynomolgus pan-T cells
T4 construct: whole, on cells
T4 sequence (Q95LI5 22-198): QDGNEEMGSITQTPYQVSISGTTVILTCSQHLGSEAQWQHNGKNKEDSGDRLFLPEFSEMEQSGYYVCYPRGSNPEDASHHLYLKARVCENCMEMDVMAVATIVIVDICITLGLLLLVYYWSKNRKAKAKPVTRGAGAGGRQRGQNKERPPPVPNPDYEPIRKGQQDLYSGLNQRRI
Method: as §1

Row | Binder | EC50 [pM]
31 | B1 | 4100
32 | B2 | 26200
33 | B3 | 27700

— patent publication US20240343800A1 (Merck KGaA, published 2024)
